Laboratory results as given in US20260070984A1 (Boehringer Ingelheim, published 2026).
Changes are numbered by the printed parent chain. Read-outs that look alike come from different tables or passages of the source. Values belong to the binder of their own block, whether it stands above or below them.

What was measured:
[1] = molecular target: T1, human PD-1 expressed on cells (human, UniProt Q15116 25-288); assay: cell-based or functional assay
[2] = molecular target: T1, human PD-1 expressed on cells; assay: cell-based or functional assay; remark: listed apart in the source
recombinant human PD-1 = molecular target: T2, recombinant human PD-1 (human, UniProt Q15116 25-167, limits assumed); assay: SPR, ProteOn XPR36
T2 construct: Soluble recombinant protein used in SPR; also called PDCD1; purified recombinant human PD-1
Description: Kinetics and binding affinities were measured using the ProteOn™ XPR36 (Biorad, Hercules, CA) surface plasmon resonance optical biosensor using material generated from transient transfection following single column purification.

[3] = molecular target: T1, human PD-1 expressed on cells; assay: cell-based or functional assay; remark: listed apart in the source

T2 sequence (Q15116 25-167 limits assumed): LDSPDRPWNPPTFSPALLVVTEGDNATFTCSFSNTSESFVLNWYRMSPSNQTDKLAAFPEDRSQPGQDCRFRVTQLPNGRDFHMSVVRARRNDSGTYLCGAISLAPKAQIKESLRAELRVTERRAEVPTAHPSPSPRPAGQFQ
T1 sequence (Q15116 25-288): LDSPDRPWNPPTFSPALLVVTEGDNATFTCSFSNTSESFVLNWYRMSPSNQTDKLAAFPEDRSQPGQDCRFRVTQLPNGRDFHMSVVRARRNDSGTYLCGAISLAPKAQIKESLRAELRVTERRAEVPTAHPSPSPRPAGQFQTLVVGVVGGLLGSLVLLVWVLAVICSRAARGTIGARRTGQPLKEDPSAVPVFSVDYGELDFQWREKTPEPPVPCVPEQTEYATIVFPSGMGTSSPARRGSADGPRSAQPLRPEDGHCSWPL

B1: 803E6 (mouse IgG1 backbone) (antibody, V domains shown)
VH: EVKLVESEGGLVQPGSSMKLSCTASGFTFSDYYMAWVRQVPEKGLEWVANINYDGFNTYYLDSLKSRFIISRDNAKNILYLQMSSLKSEDTATYYCARGGYWSLYFDYWGQGTTLTVSS
VL: DIVMTQSPSSLTVTAGEKVTMSCKSSQSLLHSGNQKNYMTWYQQKPGQPPKLLIYWASTRESGVPDRFTGSGSGTDFTLTISSVQAEDLAVYYCQNDYSYPLTFGAGTKLELK
Emax Values (%), inhibition of NFAT activity [1]: 48.3%
IC50 Values (nM), inhibition of NFAT activity [1]: 0.38 nM

B5: 811G3 (mouse IgG1 backbone) (antibody, V domains shown)
VH: QIQLQQSGPEVVKPGASVKISCKASGYTFTDYYINWVKQRPGQGLEWIGWIYPGGGHTKYNEKFKGEATLTVDTSSRTAYMQLSSLTSEDSAVYFCARYSNYYFDFWGHGTTLTVSS
VL: DIQMTQSPSSLSASPGERVSLTCRASQEISGYLSWLQQKPDGTIKRLIYVASTLDSGVPKRFSGSRSGSDYSLTISSLESEDFADYYCLQYANYPYTFGGGTKLEIK
Emax Values (%), inhibition of NFAT activity [1]: 44.5%
IC50 Values (nM), inhibition of NFAT activity [1]: 0.14 nM

B7: 703D10 (mouse IgG1 backbone) (antibody, V domains shown)
VH: QVQLQQPGAELVKPGASVKLSCKASGYSFTSYWMHWVRQRPGQGLEWIGDIDPSNSYAYHSQKFKGKATLTVDKSSSTAYMQLSSLTSEDSAVYFCARADGTSHWYFDVWGAGTAVTVSS
VL: QIVLTQSPGIMSASPGEKVTITCSANSSVSFMHWFQQKPGTSPKIWIYSTSSLASGVPARFSGSGSGTSYSLTISRMEAEDAATYYCQQRSSYPLTFGAGTKLELK
Emax Values (%), Average, inhibition of IFNγ [2]: 65%
IC50 Values (pM), Average, inhibition of IFNγ [2]: 3200 pM
Emax Values (%), inhibition of NFAT activity [1]: 47.4%
IC50 Values (nM), inhibition of NFAT activity [1]: 10.9 nM

B8: Chimeric 703D10 (antibody, V domains shown)
VH: B7 VH
VL: B7 VL
notes: Mouse variable domains in human IgG4Pro (Ser228Pro) backbone; also called 703D10 in human IgG4Pro backbone
Kd (recombinant human PD-1): 9.49 nM
koff (recombinant human PD-1): 0.000329 s⁻¹
kon (recombinant human PD-1): 34600 M⁻¹ s⁻¹
Emax Values (%), inhibition of NFAT activity [1]: 41.9%
IC50 Values (nM), inhibition of NFAT activity [1]: 0.39 nM

B11: Chimeric 718C2 (antibody, V domains shown)
VH: EVQLQQSGPELVKPGASVKMSCKASGYTFTSYVMHWVRQKPGQGLEWIGYIDPDNDGTKYNEKFKGKATLTSDKSSSTAYMELSSLTSEDSAVYYCAREAYYGGLYGMDYWGQGSSVTVSS
VL: DIVMSQSPSSLTVSVGEKVTMSCKSSQSLLYSSNQKIYLAWFQQKPGQSPKLLIYWASTRESGVPDRFTGSGSGTDFTLTISSVKAEDLAVYYCQQYYNSPLTFGAGTKLELK
notes: Mouse variable domains in human IgG4Pro (Ser228Pro) backbone; also called 718C2 in human IgG4Pro backbone
Kd (recombinant human PD-1): 3.98 nM
koff (recombinant human PD-1): 0.000113 s⁻¹
kon (recombinant human PD-1): 28400 M⁻¹ s⁻¹
Emax Values (%), inhibition of NFAT activity [1]: 44.4%
IC50 Values (nM), inhibition of NFAT activity [1]: 0.38 nM

B12: 313C12 (mouse IgG1 backbone) (antibody, V domains shown)
VH: EVQLVESGGGLVKPGGSLKLSCAASGFTFSDYGMHWVRQTPEKGLEWIAYINSDSNTIYYADTVKGRFTISRDNARKTLYLQMTSLRSEDTAMYYCSPLVAPDYWGQGTTLTVSS
VL: DIVMTQSQKFMSTTVGDRVSITCKASQNVGTAVAWYQQKPGQSPKLLIYSVSNRYTGVPDRFTGSGSGTDFTLTISNMQSEDLADYFCQQYSSYPFTFGAGTKLELK
Emax Values (%), Average, inhibition of IFNγ [2]: 79%
IC50 Values (pM), Average, inhibition of IFNγ [2]: 459 pM
Emax Values (%), inhibition of NFAT activity [1]: 42.2%
IC50 Values (nM), inhibition of NFAT activity [1]: 0.37 nM

B13: 709A6 (mouse IgG1 backbone) (antibody, V domains shown)
VH: QVTLKESGPGILQPSQTLSLTCSFSGFSLSTSGMGVSWIRQPSGKGLEWLTHIYWDDDKRYNPSLKSRLTISKDTSRNQVFLEITSVDTADTATYFCARSSQGLYSSYDYWGQGTTLTVSS
VL: DIVLTQSPASLAVSLGQRATISCRASESVDIYGISFLHWYQQKPGQPPKHLIYRASNLDSGIPARFSGSGSRTDFTLTINPVETDDVATYYCQQSNKDPLTFGAGTKLELK
Emax Values (%), inhibition of NFAT activity [1]: 29.8%
IC50 Values (nM), inhibition of NFAT activity [1]: 0.04 nM

B16: 708E4 (mouse IgG1 backbone) (antibody, V domains shown)
VH: QIQLQQSGPELVKPGASVKISCKASGYTFTDYYLNWVKQRPGHGLEWIGWIYPGSSDTKHNENFKGKATLTVDTYSSTAYMQLGSLTSEDSAVYFCTRYSNFFFDYWGQGTTLTVSS
VL: DIVMTQSQKFLSTSVGDRVRVTCKASQNVVTYVAWYQQKPGQSPKSLIYSASYRYSGVPDRFTGSGSGTYFTLTINNVQFEDLAEYFCQQYHSYPYTFGGGTKLEIK
Emax Values (%), Average, inhibition of IFNγ [2]: 73.5%
IC50 Values (pM), Average, inhibition of IFNγ [2]: 915 pM
Emax Values (%), inhibition of NFAT activity [1]: 48.7%
IC50 Values (nM), inhibition of NFAT activity [1]: 0.17 nM

Continued, values first:

Emax Values (%), Average, inhibition of IFNγ [2]: 63%
IC50 Values (pM), Average, inhibition of IFNγ [2]: 74.2 pM
Emax Values (%), inhibition of NFAT activity [1]: 40.7%
IC50 Values (nM), inhibition of NFAT activity [1]: 0.25 nM
B2: 814E10 (mouse IgG1 backbone) (antibody, V domains shown)
VH: QIQLQQSGPELVKPGASVKISCKASGYTFTSYYIQWVKQRPGQGLEWIGWIYPGDGTTNYNENFKGKTTLTADKSSSTVYMLLSSLTSEDSAVYFCARYGLVPFDYWGQGTTLTVSS
VL: DIQMTQTTSSLSASLGDRVTISCSASQDIINYLNWYQQKPDGTVKLLIYSTSSLHSGVSLRFSGSGSGTDYSLTISNLEPEDVATYYCHQYSQLPYTFGGGTKLEIK

Kd (recombinant human PD-1): 2.71 nM
koff (recombinant human PD-1): 0.000286 s⁻¹
kon (recombinant human PD-1): 106000 M⁻¹ s⁻¹
Emax Values (%), Average, inhibition of IFNγ [3]: 56.7%
IC50 Values (pM), Geomean, inhibition of IFNγ [3]: 38.5 pM
Emax Values (%), inhibition of NFAT activity [1]: 40%
IC50 Values (nM), inhibition of NFAT activity [1]: 0.14 nM
B3: Chimeric 820C3 (antibody, V domains shown)
VH: QIQLQQSGPELVKTGASVKISCKASGNTFNSNYIQWVKQRPGQGLEWIGWIYPGDGSTNYSEKFKGKTTLTADKSSSTAYMLVSSLTSEDSAVYFCARYGPVPFDYWGQGTTLSVSS
VL: B2 VL with I30F, S50Y, S59P, L60S, Y71F, V83I, H89Q, Q93N
notes: Mouse variable domains in human IgG4Pro (Ser228Pro) backbone; also called chimeric 820C3 in IgG4Pro; 820C3-4P

Emax Values (%), Average, inhibition of IFNγ [2]: 82%
IC50 Values (pM), Average, inhibition of IFNγ [2]: 205 pM
Emax Values (%), inhibition of NFAT activity [1]: 48.7%
IC50 Values (nM), inhibition of NFAT activity [1]: 0.14 nM
B4: 820C3 (mouse IgG1 backbone) (antibody, V domains shown)
VH: B3 VH
VL: B2 VL with I30F, S50Y, S59P, L60S, Y71F, V83I, H89Q, Q93N

Emax Values (%), Average, inhibition of IFNγ [2]: 74%
IC50 Values (pM), Average, inhibition of IFNγ [2]: 122 pM
Emax Values (%), inhibition of NFAT activity [1]: 43.7%
IC50 Values (nM), inhibition of NFAT activity [1]: 0.14 nM
B6: 723C2 (mouse IgG1 backbone) (antibody, V domains shown)
VH: EVQLVESGGGLVQPGGSLKLSCAASGFTFSDYYMSWVRQTPEKRLEWVAYISSGGGSSYYPDSVKGRFTISRDNTKNTLYLQMSSLKSEDTAVYYCARLPHYFAMDCWGQGTSVTVSS
VL: EIVLTQSPTTMAASPGEKITITCSASSSISSDYLHWYQQKPGFSPELLIYRTSNLASGVPARFSGSGSGTSYSLTIGSMEAEDVATYYCQQGTSLPRAFGGGTKLEIK

Emax Values (%), inhibition of NFAT activity [1]: 45%
IC50 Values (nM), inhibition of NFAT activity [1]: 0.39 nM
B9: 414A12 (mouse IgG1 backbone) (antibody, V domains shown)
VH: QVQLQQPGAELVKPGASVKLSCKASGHTFTSNWIHWVKQRPGQGLEWIGEIDPSDSYTYYNQKFKGKATLTVDKSSSTAYMQLSSLTSEDSAVYSCACPGRNSNFAYWGQGTTLTVSS
VL: DILMTQSPSSMSVSLGDTVSITCHASQGINNNIGWLQQKPGKSFKGLIYHKSNLEDGVPSRFSGSGSGADYSLTISSLESEDFADYYCVQYAQFPYTFGGGTKLEIK

Emax Values (%), Average, inhibition of IFNγ [2]: 64.5%
IC50 Values (pM), Average, inhibition of IFNγ [2]: 995 pM
Emax Values (%), inhibition of NFAT activity [1]: 50.8%
IC50 Values (nM), inhibition of NFAT activity [1]: 0.82 nM
B10: 718C2 (mouse IgG1 backbone) (antibody, V domains shown)
VH: B11 VH
VL: B11 VL

Emax Values (%), Average, inhibition of IFNγ [2]: 19.5%
IC50 Values (pM), Average, inhibition of IFNγ [2]: 22 pM
Emax Values (%), inhibition of NFAT activity [1]: 45.5%
IC50 Values (nM), inhibition of NFAT activity [1]: 1.14 nM
B14: 306E6 (mouse IgG1 backbone) (antibody, V domains shown)
VH: EVQLQQSGPELVKPGSSVKISCKASGYTFTDYYVNWVKQSHGKSLEWFGDIHPNSGDTTYNQKFKDKATLTVDKSSSTAYMELRSLTSEDSAVYYCARRRYDYDGFAYWGQGTLVTVSA
VL: EIVMTQAAFSNPVTLGTSASISCRSSKSLLHRNGITYLYWYLQKPGQSPQLLIYEMSNLASGVPDRFSSSGSGTDFTLRISRVEAEDVGVYYCGQNLEFPLTFGAGTKLELK

Emax Values (%), inhibition of NFAT activity [1]: 42.6%
IC50 Values (nM), inhibition of NFAT activity [1]: 1.03 nM
B15: 307A3 (mouse IgG1 backbone) (antibody, V domains shown)
VH: B14 VH with S16A, S55N, D57G, T58I, D66G, T69S
VL: B14 VL with S69G
